Measured values published in the supplement of paper PMC7125110.
± gives the standard error. For some of these results: This sample holds only a part of the variants without activity.

B1: glmS ribozyme (parent)
chain: AUAAAAGCGCCAGAACUACAGAAAUGUAGUUGACGAGGAGGAGGUUUAUCGAAUUUUCGGCGGAUGCCUCCAAA

Tests used:
Conditions in all cases: with glucosamine-6-phosphate
glucosamine-6-phosphate [1] = variants of: B1; assay: kcat; higher = faster cleavage; RNA array
How it was run: (§1)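 Tracking of barcoded ribozyme variants used a hybridised Cy3 probe at 37 °C, after in situ transcription by E. coli RNA polymerase on sequenced MiSeq chips. The flowed solution held 40 μM to 10 mM glucosamine-6-phosphate in HEPES/KCl/Mg(OAc)2 buffer, and imaging ran over ~14 h. kobs was taken from exponential decay fits of normalised per-tile medians, and kcat and KM from weighted Michaelis–Menten fits.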

glucosamine-6-phosphate [2] = variants of: B1; assay: self-cleavage kobs at 40 uM GlcN6P; higher = faster cleavage; RNA array
How it was run: as §1

glucosamine-6-phosphate [3] = variants of: B1; assay: self-cleavage kobs at 2500 uM GlcN6P; higher = faster cleavage; RNA array
How it was run: as §1

glucosamine-6-phosphate [4] = variants of: B1; assay: self-cleavage kobs at 10000 uM GlcN6P; higher = faster cleavage; RNA array
How it was run: as §1

glucosamine-6-phosphate [5] = variants of: B1; assay: KM; higher = weaker cofactor use; RNA array
How it was run: as §1

glucosamine-6-phosphate [6] = variants of: B1; assay: self-cleavage kobs at 640 uM GlcN6P; higher = faster cleavage; RNA array
How it was run: as §1

glucosamine-6-phosphate [7] = variants of: B1; assay: self-cleavage kobs at 160 uM GlcN6P; higher = faster cleavage; RNA array
How it was run: as §1

Variant	kcat (glucosamine-6-phosphate [1])	self-cleavage kobs at 40 uM GlcN6P (glucosamine-6-phosphate [2])	self-cleavage kobs at 2500 uM GlcN6P (glucosamine-6-phosphate [3])	self-cleavage kobs at 10000 uM GlcN6P (glucosamine-6-phosphate [4])	KM (glucosamine-6-phosphate [5])	self-cleavage kobs at 640 uM GlcN6P (glucosamine-6-phosphate [6])	self-cleavage kobs at 160 uM GlcN6P (glucosamine-6-phosphate [7])
A6U U30G	4.09e-05 ± 8.6e-06 s⁻¹	< 1e-05 s⁻¹	4.14e-05 ± 1.3e-05 s⁻¹	3.5e-05 ± 9.7e-06 s⁻¹	–	–	–
C10A C61A	2.22e-05 ± 9.1e-06 s⁻¹	< 1e-05 s⁻¹	–	–	–	–	–
C10A U47A U57A C70U	3.44e-05 ± 1.3e-05 s⁻¹	–	–	–	–	–	–
C11G G63A C68U	< 1e-05 s⁻¹	–	–	–	–	–	–
C10U A53U	1.55e-05 ± 3.9e-06 s⁻¹	–	–	–	–	–	–
C11A U54A	0.000163 ± 1.3e-05 s⁻¹	–	9.05e-05 ± 1.9e-05 s⁻¹	0.000145 ± 1.4e-05 s⁻¹	1490 ± 400 µM	5.49e-05 ± 1.4e-05 s⁻¹	–
C10A U57G	< 1e-05 s⁻¹	< 1e-05 s⁻¹	–	–	–	–	–
A6C C16U	0.000207 ± 4.9e-05 s⁻¹	–	3.13e-05 ± 9e-06 s⁻¹	8.88e-05 ± 1.1e-05 s⁻¹	–	–	–
A6U G40U	2.6e-05 ± 7e-07 s⁻¹	–	–	1.8e-05 ± 7.6e-06 s⁻¹	4450 ± 330 µM	–	–
C8A U49C	< 1e-05 s⁻¹	–	< 1e-05 s⁻¹	–	–	< 1e-05 s⁻¹	–
C11A A36U G37C	< 1e-05 s⁻¹	< 1e-05 s⁻¹	–	–	–	–	–
G7U A48U C50G U54G	3.22e-05 ± 1.3e-05 s⁻¹	–	–	–	–	–	–
A6G A14C U54G	3.49e-05 ± 4.1e-06 s⁻¹	–	3.32e-05 ± 1.2e-05 s⁻¹	3.47e-05 ± 1.5e-05 s⁻¹	–	–	–
C10A C71A	1.51e-05 ± 2.9e-06 s⁻¹	–	–	–	–	–	–
C10A C71G	3.78e-05 ± 1.3e-05 s⁻¹	–	–	–	–	5.99e-05 ± 2e-05 s⁻¹	–
A6U C16G	5.15e-05 ± 3.5e-06 s⁻¹	–	2.28e-05 ± 1e-05 s⁻¹	3.87e-05 ± 6.9e-06 s⁻¹	3290 ± 720 µM	–	–
A6U C16U	0.000238 ± 2.8e-05 s⁻¹	–	0.000118 ± 1.2e-05 s⁻¹	0.00021 ± 1.7e-05 s⁻¹	1970 ± 520 µM	6.36e-05 ± 7.9e-06 s⁻¹	2.54e-05 ± 9.5e-06 s⁻¹
C11A U56C	2.55e-05 ± 1e-05 s⁻¹	< 1e-05 s⁻¹	4.6e-05 ± 2.2e-05 s⁻¹	–	–	–	< 1e-05 s⁻¹
C11A U56A	0.000143 ± 1.9e-06 s⁻¹	–	7.89e-05 ± 1.5e-05 s⁻¹	0.000118 ± 1.3e-05 s⁻¹	2090 ± 78 µM	3.27e-05 ± 1e-05 s⁻¹	–
C11G U30C U65G U69A	2.81e-05 ± 7.1e-06 s⁻¹	–	–	–	–	–	–
G7A A53U	2.79e-05 ± 1.1e-05 s⁻¹	–	–	–	–	–	–
C10A G59A C68G U69C	3.77e-05 ± 1.1e-05 s⁻¹	–	–	–	–	–	–
G9A U55A	2.49e-05 ± 5.6e-07 s⁻¹	–	–	2.18e-05 ± 9.9e-06 s⁻¹	1410 ± 200 µM	–	–
A6G G66A	0.000421 ± 2.1e-05 s⁻¹	–	0.000217 ± 5.1e-05 s⁻¹	0.000325 ± 7.5e-05 s⁻¹	2650 ± 210 µM	8.05e-05 ± 1.4e-05 s⁻¹	–
C10U G66U	< 1e-05 s⁻¹	–	–	< 1e-05 s⁻¹	–	< 1e-05 s⁻¹	< 1e-05 s⁻¹
C10U G66A	1.5e-05 ± 2.3e-06 s⁻¹	–	–	–	–	–	–

Variant	kcat (glucosamine-6-phosphate [1])	self-cleavage kobs at 40 uM GlcN6P (glucosamine-6-phosphate [2])	self-cleavage kobs at 2500 uM GlcN6P (glucosamine-6-phosphate [3])	self-cleavage kobs at 10000 uM GlcN6P (glucosamine-6-phosphate [4])	KM (glucosamine-6-phosphate [5])	self-cleavage kobs at 640 uM GlcN6P (glucosamine-6-phosphate [6])	self-cleavage kobs at 160 uM GlcN6P (glucosamine-6-phosphate [7])
G9U G59A	< 1e-05 s⁻¹	< 1e-05 s⁻¹	< 1e-05 s⁻¹	–	–	–	–
C10G C50A C71U	1.87e-05 ± 3.4e-06 s⁻¹	–	–	< 1e-05 s⁻¹	–	–	–
A1G G37U	1.48e-05 ± 2.9e-06 s⁻¹	–	–	–	–	< 1e-05 s⁻¹	–
C10U U47A	2.05e-05 ± 1.2e-06 s⁻¹	< 1e-05 s⁻¹	–	–	300 ± 150 µM	–	< 1e-05 s⁻¹
A6C U69A	2.1e-05 ± 3.8e-06 s⁻¹	–	–	–	–	–	–
G7C C10G C67G	1.87e-05 ± 2.3e-06 s⁻¹	–	–	–	–	–	–
C10A A39G	< 1e-05 s⁻¹	–	–	–	–	< 1e-05 s⁻¹	< 1e-05 s⁻¹
C11A G59U	0.0133 ± 0.0031 s⁻¹	0.000273 ± 2.8e-05 s⁻¹	0.00743 ± 0.0012 s⁻¹	0.0105 ± 0.0013 s⁻¹	2310 ± 700 µM	0.00335 ± 0.00043 s⁻¹	0.000683 ± 8.7e-05 s⁻¹
A6G A39U	0.000276 ± 7.5e-06 s⁻¹	–	0.000176 ± 2.3e-05 s⁻¹	0.000239 ± 3.2e-05 s⁻¹	1490 ± 84 µM	8.14e-05 ± 1.2e-05 s⁻¹	2.95e-05 ± 1.1e-05 s⁻¹
A6U C67A	7.39e-05 ± 6.8e-06 s⁻¹	–	5.62e-05 ± 1.1e-05 s⁻¹	7.43e-05 ± 7.2e-06 s⁻¹	–	6.68e-05 ± 1.7e-05 s⁻¹	–
C10G C67A	2.45e-05 ± 7.2e-06 s⁻¹	–	–	–	–	–	–
G7A A14C	1.34e-05 ± 5.9e-06 s⁻¹	< 1e-05 s⁻¹	–	–	–	–	–
C10U C68G C70U	7.35e-05 ± 2.9e-05 s⁻¹	–	5.98e-05 ± 1.4e-05 s⁻¹	–	–	0.00013 ± 2.8e-05 s⁻¹	3.3e-05 ± 1.5e-05 s⁻¹
C8A C70A	1.28e-05 ± 2.3e-06 s⁻¹	–	–	–	–	–	–
C8A C70U	< 1e-05 s⁻¹	–	–	–	–	–	< 1e-05 s⁻¹
G7U C71G	1.1e-05 ± 2.1e-06 s⁻¹	–	–	–	–	–	< 1e-05 s⁻¹
A6U C61G	< 1e-05 s⁻¹	–	–	–	–	< 1e-05 s⁻¹	< 1e-05 s⁻¹
C11G A14U C70A	3.61e-05 ± 1.3e-05 s⁻¹	–	–	–	–	–	–
C11A G29U	3.97e-05 ± 4.4e-06 s⁻¹	–	3.72e-05 ± 1.1e-05 s⁻¹	3.56e-05 ± 8.9e-06 s⁻¹	–	–	–
C10U G35A	1.32e-05 ± 1.8e-06 s⁻¹	–	–	< 1e-05 s⁻¹	–	–	–
A6U U31C	3.19e-05 ± 7.8e-07 s⁻¹	–	–	2.97e-05 ± 1.2e-05 s⁻¹	647 ± 96 µM	–	–
C11A C50U A64U	< 1e-05 s⁻¹	–	–	–	–	–	–
A6G C71U	6.03e-05 ± 2.1e-06 s⁻¹	–	3.33e-05 ± 8e-06 s⁻¹	5.1e-05 ± 6.3e-06 s⁻¹	1890 ± 260 µM	–	–
C10U G38U	< 1e-05 s⁻¹	–	–	–	–	–	–
A6U C58U C70G	1.51e-05 ± 4.3e-06 s⁻¹	–	–	–	–	–	–
